The subject of this data set is Escherichia coli TOP10. The data set can be described thus: shrunken log2 fold change of peptide-encoding DNA abundance (4.5 h post-induction vs induction); higher = less antimicrobial activity (less host growth inhibition). The conditions noted are these: time post-induction: 4.5 h; library: site-saturation at positions 5, 18, 19, 20.
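Note: peptides expressed intracellularly from a pBAD plasmid library in pooled LB shake-flask culture, induced with 0.3% L-arabinose, DNA abundance read by NGS, three biological replicates, DESeq2 with apeglm shrinkage.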

As for RRIRHRPPRLPRPRPRPFRNPRP, the “shrunken log2 fold change” value was -0.221.

For the sequence RRIRYRPPRLPRPRPRPAKQPRP, the “shrunken log2 fold change” value was -0.168.

Regarding RRIRGRPPRLPRPRPRPCHSPRP, the “shrunken log2 fold change” value was 0.0222.

For the sequence RRIRARPPRLPRPRPRPGHHPRP, the “shrunken log2 fold change” value came to 0.127.

On to RRIRERPPRLPRPRPRPDHTPRP, for which the “shrunken log2 fold change” value was -0.0309.

In the case of RRIRCRPPRLPRPRPRPPRDPRP, the “shrunken log2 fold change” value worked out at 0.84.

As for RRIRPRPPRLPRPRPRPHFSPRP, the “shrunken log2 fold change” value is -0.108.

With RRIRPRPPRLPRPRPRPLYHPRP, the “shrunken log2 fold change” value was -0.514.

Regarding RRIRLRPPRLPRPRPRPWVEPRP, the “shrunken log2 fold change” value was -0.186.

With RRIRWRPPRLPRPRPRPWTPPRP, the “shrunken log2 fold change” value amounted to 0.0119.

Regarding RRIRIRPPRLPRPRPRPKDTPRP, the “shrunken log2 fold change” value was -0.224.

For the sequence RRIRSRPPRLPRPRPRPSFAPRP, the “shrunken log2 fold change” value worked out at 0.0497.

On to RRIRVRPPRLPRPRPRPQKLPRP, for which the “shrunken log2 fold change” value is -0.0565.

RRIRVRPPRLPRPRPRPFMIPRP: the “shrunken log2 fold change” value was -0.256.

Regarding RRIRYRPPRLPRPRPRPDYKPRP, the “shrunken log2 fold change” value is -0.136.

For the sequence RRIRYRPPRLPRPRPRPVCLPRP, the “shrunken log2 fold change” value was -0.365.

Turning to RRIRPRPPRLPRPRPRPRPGPRP, the “shrunken log2 fold change” value is 0.555.

With RRIRSRPPRLPRPRPRPHCNPRP, the “shrunken log2 fold change” value was -0.36.

With RRIRQRPPRLPRPRPRPWDFPRP, the “shrunken log2 fold change” value worked out at 0.2.

RRIRGRPPRLPRPRPRPVHQPRP: the “shrunken log2 fold change” value was determined as 0.228.

Take RRIRDRPPRLPRPRPRPGPLPRP: the “shrunken log2 fold change” value amounted to 0.0434.

With RRIRFRPPRLPRPRPRPPDGPRP, the “shrunken log2 fold change” value stood at 0.209.

RRIRARPPRLPRPRPRPPHIPRP: the “shrunken log2 fold change” value came to 0.455.

Regarding RRIRIRPPRLPRPRPRPIYVPRP, the “shrunken log2 fold change” value was -0.24.

Regarding RRIRCRPPRLPRPRPRPQENPRP, the “shrunken log2 fold change” value was -0.0731.

In the case of RRIRHRPPRLPRPRPRPQCTPRP, the “shrunken log2 fold change” value was -0.124.

Turning to RRIRRRPPRLPRPRPRPQQPPRP, the “shrunken log2 fold change” value worked out at 0.325.

As for RRIRKRPPRLPRPRPRPHRWPRP, the “shrunken log2 fold change” value stood at 0.00588.

In the case of RRIRPRPPRLPRPRPRPIGKPRP, the “shrunken log2 fold change” value is -0.156.

For RRIRSRPPRLPRPRPRPHMLPRP, the “shrunken log2 fold change” value was -0.104.

Consider RRIRYRPPRLPRPRPRPNGEPRP, for which the “shrunken log2 fold change” value was -0.0103.

RRIRTRPPRLPRPRPRPDHLPRP: the “shrunken log2 fold change” value turned out to be 0.0101.

Take RRIRVRPPRLPRPRPRPIKCPRP: the “shrunken log2 fold change” value is -0.633.

In the case of RRIRGRPPRLPRPRPRPWENPRP, the “shrunken log2 fold change” value came out at 1.02.

Consider RRIRFRPPRLPRPRPRPMHFPRP, for which the “shrunken log2 fold change” value was -0.136.

Take RRIRSRPPRLPRPRPRPWLRPRP: the “shrunken log2 fold change” value was -0.241.

Regarding RRIRWRPPRLPRPRPRPAGKPRP, the “shrunken log2 fold change” value is 0.0305.

As for RRIRARPPRLPRPRPRPTSAPRP, the “shrunken log2 fold change” value was 0.684.

Consider RRIRLRPPRLPRPRPRPYMDPRP, for which the “shrunken log2 fold change” value was -0.0681.

Turning to RRIRDRPPRLPRPRPRPTDIPRP, the “shrunken log2 fold change” value was -0.231.

On to RRIRYRPPRLPRPRPRPQNWPRP, for which the “shrunken log2 fold change” value is -0.611.

For the sequence RRIRSRPPRLPRPRPRPVRGPRP, the “shrunken log2 fold change” value stood at 0.573.

Consider RRIRDRPPRLPRPRPRPNCMPRP, for which the “shrunken log2 fold change” value amounted to 0.111.

On to RRIRVRPPRLPRPRPRPKGKPRP, for which the “shrunken log2 fold change” value came out at 0.102.

For RRIRCRPPRLPRPRPRPNVTPRP, the “shrunken log2 fold change” value stood at 0.632.

On to RRIRNRPPRLPRPRPRPLSEPRP, for which the “shrunken log2 fold change” value came to 0.0166.

Take RRIRRRPPRLPRPRPRPGVTPRP: the “shrunken log2 fold change” value was found to be 0.303.

As for RRIRFRPPRLPRPRPRPEAAPRP, the “shrunken log2 fold change” value was found to be 0.965.

For RRIRDRPPRLPRPRPRPQWSPRP, the “shrunken log2 fold change” value is -0.0128.

Turning to RRIRNRPPRLPRPRPRPHKYPRP, the “shrunken log2 fold change” value was -1.52.

For RRIRDRPPRLPRPRPRPMYAPRP, the “shrunken log2 fold change” value turned out to be 0.143.

As to RRIRSRPPRLPRPRPRPCQEPRP, the “shrunken log2 fold change” value is -0.0101.

As to RRIRLRPPRLPRPRPRPWMWPRP, the “shrunken log2 fold change” value turned out to be 0.154.

Take RRIRVRPPRLPRPRPRPIARPRP: the “shrunken log2 fold change” value turned out to be 0.0436.

RRIRLRPPRLPRPRPRPGNPPRP: the “shrunken log2 fold change” value amounted to 0.0749.

As to RRIRARPPRLPRPRPRPSNMPRP, the “shrunken log2 fold change” value was -0.28.

On to RRIRVRPPRLPRPRPRPNNTPRP, for which the “shrunken log2 fold change” value is -0.418.

Consider RRIRRRPPRLPRPRPRPLNLPRP, for which the “shrunken log2 fold change” value worked out at 0.0248.

As to RRIRVRPPRLPRPRPRPSMDPRP, the “shrunken log2 fold change” value amounted to 2.34.

Regarding RRIRSRPPRLPRPRPRPYRLPRP, the “shrunken log2 fold change” value is -0.279.

RRIRKRPPRLPRPRPRPHLHPRP: the “shrunken log2 fold change” value is 0.265.

Regarding RRIRPRPPRLPRPRPRPFGKPRP, the “shrunken log2 fold change” value was -0.164.

For the sequence RRIRQRPPRLPRPRPRPDIVPRP, the “shrunken log2 fold change” value was -0.0164.

Consider RRIRGRPPRLPRPRPRPMKCPRP, for which the “shrunken log2 fold change” value stood at 0.0384.

Take RRIRPRPPRLPRPRPRPKKKPRP: the “shrunken log2 fold change” value was -0.192.

RRIRSRPPRLPRPRPRPTVDPRP: the “shrunken log2 fold change” value came to 0.16.

With RRIRDRPPRLPRPRPRPASSPRP, the “shrunken log2 fold change” value came to 0.0229.

Consider RRIRSRPPRLPRPRPRPNIAPRP, for which the “shrunken log2 fold change” value was found to be 0.0275.

As for RRIRQRPPRLPRPRPRPGERPRP, the “shrunken log2 fold change” value came out at 0.0849.

As for RRIRPRPPRLPRPRPRPHVPPRP, the “shrunken log2 fold change” value turned out to be 3.25.

In the case of RRIRQRPPRLPRPRPRPIAKPRP, the “shrunken log2 fold change” value was -0.00229.

In the case of RRIRWRPPRLPRPRPRPQWVPRP, the “shrunken log2 fold change” value stood at 0.0902.

Turning to RRIRWRPPRLPRPRPRPHGLPRP, the “shrunken log2 fold change” value was 0.0735.

Take RRIRCRPPRLPRPRPRPDGQPRP: the “shrunken log2 fold change” value came out at 0.101.

On to RRIRFRPPRLPRPRPRPMSPPRP, for which the “shrunken log2 fold change” value was -0.0304.

Turning to RRIRNRPPRLPRPRPRPQDPPRP, the “shrunken log2 fold change” value is -0.296.

Consider RRIRLRPPRLPRPRPRPPKVPRP, for which the “shrunken log2 fold change” value was 0.287.

Turning to RRIRPRPPRLPRPRPRPLDFPRP, the “shrunken log2 fold change” value is -0.116.

Take RRIRFRPPRLPRPRPRPIHFPRP: the “shrunken log2 fold change” value is -0.246.

Take RRIRPRPPRLPRPRPRPHQDPRP: the “shrunken log2 fold change” value was -0.362.

On to RRIRIRPPRLPRPRPRPCKVPRP, for which the “shrunken log2 fold change” value is -0.513.

As for RRIRYRPPRLPRPRPRPDWLPRP, the “shrunken log2 fold change” value is -0.0748.

As for RRIRFRPPRLPRPRPRPNHQPRP, the “shrunken log2 fold change” value is -0.736.

RRIRRRPPRLPRPRPRPFFHPRP: the “shrunken log2 fold change” value is 0.154.

In the case of RRIRVRPPRLPRPRPRPARWPRP, the “shrunken log2 fold change” value was determined as 0.586.

Take RRIRWRPPRLPRPRPRPVSGPRP: the “shrunken log2 fold change” value was -0.0172.

Regarding RRIRPRPPRLPRPRPRPMGLPRP, the “shrunken log2 fold change” value was 0.0513.

Turning to RRIRFRPPRLPRPRPRPFAAPRP, the “shrunken log2 fold change” value came out at 0.114.

Take RRIRQRPPRLPRPRPRPSNHPRP: the “shrunken log2 fold change” value was -0.346.

In the case of RRIRVRPPRLPRPRPRPDYSPRP, the “shrunken log2 fold change” value is -0.107.

As to RRIRARPPRLPRPRPRPVVLPRP, the “shrunken log2 fold change” value worked out at 0.463.

Consider RRIRERPPRLPRPRPRPWYLPRP, for which the “shrunken log2 fold change” value amounted to 0.0355.

RRIRYRPPRLPRPRPRPSTAPRP: the “shrunken log2 fold change” value is -0.0926.

In the case of RRIRNRPPRLPRPRPRPFQDPRP, the “shrunken log2 fold change” value was -0.00135.

In the case of RRIRTRPPRLPRPRPRPDIFPRP, the “shrunken log2 fold change” value is -0.234.

For RRIRLRPPRLPRPRPRPFQKPRP, the “shrunken log2 fold change” value worked out at 0.382.

Consider RRIRNRPPRLPRPRPRPGVHPRP, for which the “shrunken log2 fold change” value was 0.25.

Regarding RRIRTRPPRLPRPRPRPVTCPRP, the “shrunken log2 fold change” value is -0.0382.

With RRIRYRPPRLPRPRPRPRQLPRP, the “shrunken log2 fold change” value was -0.0472.

For the sequence RRIRHRPPRLPRPRPRPNSHPRP, the “shrunken log2 fold change” value was -1.09.

Regarding RRIRIRPPRLPRPRPRPSCCPRP, the “shrunken log2 fold change” value is -0.471.

As to RRIRCRPPRLPRPRPRPTNFPRP, the “shrunken log2 fold change” value is -0.124.

Consider RRIRVRPPRLPRPRPRPGINPRP, for which the “shrunken log2 fold change” value was -0.0188.

Turning to RRIRRRPPRLPRPRPRPSPWPRP, the “shrunken log2 fold change” value was 0.335.

Consider RRIRNRPPRLPRPRPRPDCMPRP, for which the “shrunken log2 fold change” value is 0.113.

Take RRIRIRPPRLPRPRPRPQEYPRP: the “shrunken log2 fold change” value is -0.312.

Turning to RRIRCRPPRLPRPRPRPTNMPRP, the “shrunken log2 fold change” value was -0.47.

Regarding RRIRNRPPRLPRPRPRPQRQPRP, the “shrunken log2 fold change” value is 0.0149.

As to RRIRVRPPRLPRPRPRPPKTPRP, the “shrunken log2 fold change” value is 0.152.

With RRIRHRPPRLPRPRPRPAPYPRP, the “shrunken log2 fold change” value was found to be 0.296.

For the sequence RRIRARPPRLPRPRPRPFSMPRP, the “shrunken log2 fold change” value was -0.215.

Regarding RRIRHRPPRLPRPRPRPIVQPRP, the “shrunken log2 fold change” value is -0.115.

On to RRIRPRPPRLPRPRPRPYDTPRP, for which the “shrunken log2 fold change” value is 0.0749.

In the case of RRIRERPPRLPRPRPRPTQLPRP, the “shrunken log2 fold change” value was determined as 0.251.

Regarding RRIRSRPPRLPRPRPRPKNSPRP, the “shrunken log2 fold change” value was -0.431.

For RRIRSRPPRLPRPRPRPHYAPRP, the “shrunken log2 fold change” value is -0.247.

RRIRCRPPRLPRPRPRPCPCPRP: the “shrunken log2 fold change” value is -1.35.

As to RRIRRRPPRLPRPRPRPQTEPRP, the “shrunken log2 fold change” value is -0.0572.

For RRIRHRPPRLPRPRPRPKELPRP, the “shrunken log2 fold change” value was -0.00676.

For RRIRFRPPRLPRPRPRPGETPRP, the “shrunken log2 fold change” value was determined as 0.138.

As to RRIRKRPPRLPRPRPRPDRQPRP, the “shrunken log2 fold change” value was determined as 0.204.

As for RRIRCRPPRLPRPRPRPKLEPRP, the “shrunken log2 fold change” value was -0.125.

For RRIRARPPRLPRPRPRPPNTPRP, the “shrunken log2 fold change” value was 0.289.

As for RRIRARPPRLPRPRPRPVAFPRP, the “shrunken log2 fold change” value was 0.457.

Turning to RRIRARPPRLPRPRPRPHFNPRP, the “shrunken log2 fold change” value stood at 0.122.

For the origin of these results see the supplement of paper PMC9112550, “Optimization of the antimicrobial peptide Bac7 by deep mutational scanning” (BMC Biology, 2022).
